# Data: patent US20200188539A1
# Target: prostate specific membrane antigen (human (human prostate LNCaP cells)) (UniProt Q04609)
# Experiment: cell-based or functional assay
# prostate specific membrane antigen (human (human prostate LNCaP cells)), sequence (Q04609 whole entry): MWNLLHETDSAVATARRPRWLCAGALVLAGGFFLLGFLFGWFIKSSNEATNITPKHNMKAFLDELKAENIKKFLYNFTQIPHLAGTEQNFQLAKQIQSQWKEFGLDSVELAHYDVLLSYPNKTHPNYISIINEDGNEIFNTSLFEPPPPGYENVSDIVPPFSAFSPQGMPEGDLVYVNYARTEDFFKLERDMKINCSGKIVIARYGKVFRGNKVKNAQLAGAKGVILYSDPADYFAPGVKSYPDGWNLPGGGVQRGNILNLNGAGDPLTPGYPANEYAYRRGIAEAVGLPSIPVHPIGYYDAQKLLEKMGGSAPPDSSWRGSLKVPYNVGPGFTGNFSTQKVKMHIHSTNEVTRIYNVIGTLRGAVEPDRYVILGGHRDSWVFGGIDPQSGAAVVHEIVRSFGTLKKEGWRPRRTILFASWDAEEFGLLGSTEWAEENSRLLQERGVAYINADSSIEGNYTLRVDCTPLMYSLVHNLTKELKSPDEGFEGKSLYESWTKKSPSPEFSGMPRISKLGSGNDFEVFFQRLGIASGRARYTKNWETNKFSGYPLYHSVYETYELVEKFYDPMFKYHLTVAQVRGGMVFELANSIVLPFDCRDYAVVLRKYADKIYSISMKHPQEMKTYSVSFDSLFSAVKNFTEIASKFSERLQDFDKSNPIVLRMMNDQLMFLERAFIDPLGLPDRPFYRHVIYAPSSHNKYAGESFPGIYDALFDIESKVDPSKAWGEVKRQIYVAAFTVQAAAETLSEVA
substance,measurement,value
[DUPA-6-Ahx-Lys(DOTA)-6-Ahx-RM2] (peptide),"IC50 (NAALADase assay in human prostate LNCaP cells, [N-acetyl aspartyl 3H-glutamate])",9.3 nM
same,"IC50 LNCaP cells (NAALADase assay, [N-acetyl aspartyl 3H-glutamate] substrate, LNCaP homogenized cell membranes)",10.5 nM
